The MegaScale stability set (Tsuboyama et al. 2023)

B1: HEEH_KT_rd6_0007 (parent)
chain: SIEEEIKKAEEAKEKGKTFIHGDFVATTEELLDELLKRLRKKL
B2: HHH_rd2_0155 (parent)
chain: PPDDERKKAEKAARSGNEEKAREILERLGYSEDEARELAKRLR

Variants of: B1
Assay: folding stability dG (cDNA display proteolysis); higher = more stable
Settings: PBS, room temperature

Row | Variant | folding stability dG [kcal/mol]
1 | RIEEEIKKAEEAKEKGKTFIHGDFVATTEELLDELLKRLRKKL | 1.27
2 | DIEEEIKKAEEAKEKGKTFIHGDFVATTEELLDELLKRLRKKL | 1.24
3 | GIEEEIKKAEEAKEKGKTFIHGDFVATTEELLDELLKRLRKKL | 1.11
4 | PIEEEIKKAEEAKEKGKTFIHGDFVATTEELLDELLKRLRKKL | 1.01
5 | EIEEEIKKAEEAKEKGKTFIHGDFVATTEELLDELLKRLRKKL | 1.11
6 | YIEEEIKKAEEAKEKGKTFIHGDFVATTEELLDELLKRLRKKL | 1.36
7 | VIEEEIKKAEEAKEKGKTFIHGDFVATTEELLDELLKRLRKKL | 1.01
8 | KIEEEIKKAEEAKEKGKTFIHGDFVATTEELLDELLKRLRKKL | 1.14
9 | NIEEEIKKAEEAKEKGKTFIHGDFVATTEELLDELLKRLRKKL | 1.19
10 | HIEEEIKKAEEAKEKGKTFIHGDFVATTEELLDELLKRLRKKL | 1.13
11 | IIEEEIKKAEEAKEKGKTFIHGDFVATTEELLDELLKRLRKKL | 0.975
12 | WIEEEIKKAEEAKEKGKTFIHGDFVATTEELLDELLKRLRKKL | 1.78
13 | FIEEEIKKAEEAKEKGKTFIHGDFVATTEELLDELLKRLRKKL | 1.23
14 | MIEEEIKKAEEAKEKGKTFIHGDFVATTEELLDELLKRLRKKL | 1.16
15 | QIEEEIKKAEEAKEKGKTFIHGDFVATTEELLDELLKRLRKKL | 1.07
16 | TIEEEIKKAEEAKEKGKTFIHGDFVATTEELLDELLKRLRKKL | 1.28
17 | LIEEEIKKAEEAKEKGKTFIHGDFVATTEELLDELLKRLRKKL | 1.23

Row | Variant | folding stability dG [kcal/mol]
18 | AIEEEIKKAEEAKEKGKTFIHGDFVATTEELLDELLKRLRKKL | 1.21
19 | SDEEEIKKAEEAKEKGKTFIHGDFVATTEELLDELLKRLRKKL | 0.705
20 | SFEEEIKKAEEAKEKGKTFIHGDFVATTEELLDELLKRLRKKL | 0.811
21 | STEEEIKKAEEAKEKGKTFIHGDFVATTEELLDELLKRLRKKL | 0.763
22 | SNEEEIKKAEEAKEKGKTFIHGDFVATTEELLDELLKRLRKKL | 0.583
23 | SSEEEIKKAEEAKEKGKTFIHGDFVATTEELLDELLKRLRKKL | 0.818
24 | SPEEEIKKAEEAKEKGKTFIHGDFVATTEELLDELLKRLRKKL | 0.683
25 | SREEEIKKAEEAKEKGKTFIHGDFVATTEELLDELLKRLRKKL | 0.776
26 | SHEEEIKKAEEAKEKGKTFIHGDFVATTEELLDELLKRLRKKL | 0.643
27 | SAEEEIKKAEEAKEKGKTFIHGDFVATTEELLDELLKRLRKKL | 0.756
28 | SQEEEIKKAEEAKEKGKTFIHGDFVATTEELLDELLKRLRKKL | 0.766
29 | SGEEEIKKAEEAKEKGKTFIHGDFVATTEELLDELLKRLRKKL | 0.715
30 | SLEEEIKKAEEAKEKGKTFIHGDFVATTEELLDELLKRLRKKL | 1.47
31 | SMEEEIKKAEEAKEKGKTFIHGDFVATTEELLDELLKRLRKKL | 0.866
32 | SEEEEIKKAEEAKEKGKTFIHGDFVATTEELLDELLKRLRKKL | 0.545
33 | SKEEEIKKAEEAKEKGKTFIHGDFVATTEELLDELLKRLRKKL | 0.732

Variants of: B2
Assay: as above
Settings: PBS, room temperature

Row | Variant | folding stability dG [kcal/mol]
34 | PPDDERKKAEKAARSGNEEKAREILERLGYSEDEARELAKRTR | 0.69
35 | PPDDERKKAEKAARSGNEEKAREILERLGYSEDEARELAKRCR | 1.56
36 | PPDDERKKAEKAARSGNEEKAREILERLGYSEDEARELAKRYR | 2.46
37 | PPDDERKKAEKAARSGNEEKAREILERLGYSEDEARELAKRDR | 0.37
38 | PPDDERKKAEKAARSGNEEKAREILERLGYSEDEARELAKRGR | 0.615
39 | PPDDERKKAEKAARSGNEEKAREILERLGYSEDEARELAKRKR | 0.832
40 | PPDDERKKAEKAARSGNEEKAREILERLGYSEDEARELAKRNR | 0.469
41 | PPDDERKKAEKAARSGNEEKAREILERLGYSEDEARELAKRIR | 1.57
42 | PPDDERKKAEKAARSGNEEKAREILERLGYSEDEARELAKRFR | 2.26
43 | PPDDERKKAEKAARSGNEEKAREILERLGYSEDEARELAKRAR | 1.2
44 | PPDDERKKAEKAARSGNEEKAREILERLGYSEDEARELAKRSR | 0.87
45 | PPDDERKKAEKAARSGNEEKAREILERLGYSEDEARELAKRMR | 2.39
46 | PPDDERKKAEKAARSGNEEKAREILERLGYSEDEARELAKRQR | 0.824
47 | PPDDERKKAEKAARSGNEEKAREILERLGYSEDEARELAKRVR | 0.97
48 | PPDDERKKAEKAARSGNEEKAREILERLGYSEDEARELAKRWR | 3.74
49 | PPDDERKKAEKAARSGNEEKAREILERLGYSEDEARELAKRPR | 0.434
50 | PPDDERKKAEKAARSGNEEKAREILERLGYSEDEARELAKRHR | 0.87
51 | PPDDERKKAEKAARSGNEEKAREILERLGYSEDEARELAKRER | 0.286
52 | PPDDERKKAEKAARSGNEEKAREILERLGYSEDEARELAKRRR | 0.996
53 | PPDDERKKAEKAARSGNEEKAREILERLGYSEDEARELRKRLR | 0.796
54 | PPDDERKKAEKAARSGNEEKAREILERLGYSEDEARELTKRLR | 1.21
55 | PPDDERKKAEKAARSGNEEKAREILERLGYSEDEARELNKRLR | 0.26
56 | PPDDERKKAEKAARSGNEEKAREILERLGYSEDEARELSKRLR | 1.02
57 | PPDDERKKAEKAARSGNEEKAREILERLGYSEDEARELWKRLR | 1.01
58 | PPDDERKKAEKAARSGNEEKAREILERLGYSEDEARELVKRLR | 2.33
59 | PPDDERKKAEKAARSGNEEKAREILERLGYSEDEARELMKRLR | 1.75
